We go through 1 substance from doi:10.64898/2025.12.17.694860.

The target in the test is Trypanosoma brucei enolase (Trypanosoma brucei). Nature of the test: SEC. (SEC sorts molecules by how far they enter the pores of the column.)

On to Trypanosoma brucei enolase (enzyme), for which the stoichiometry N came to 2.

By stoichiometry N is commonly meant a count of units in the complex or per binding partner.
